One data set concerns P. aeruginosa isolates. Nature of the data set: MIC against a range of isolates in CAA + […] human serum (Table 11). The class given is cell-based, Pseudomonas aeruginosa.
In data set [1] the test system is Pseudomonas aeruginosa strain CFS-1292 (meropenem resistant). Nature of the data set: MIC in 25% CAA alone, with […] human serum or […] SURVANTA (Table 13). In kind it is cell-based. The procedure:
(§1) Materials and methods: MICs were determined by broth microdilution in media supplemented with human serum and pulmonary surfactant ([…]®; Myoderm Clinical Supplies). Minimal biofilm eradicating concentrations (MBECs) were determined using standard methods. […] Fluorescence microscopy was performed after LIVE/DEAD staining (ThermoFisher) and TEM was performed.

Data set [2] concerns Pseudomonas aeruginosa biofilm. Put plainly: MBEC in CAA supplemented with […] human serum (Table 14). In kind it is cell-based. The procedure: (§2) Biofilms are then washed and treated with e.g., a 2-fold dilution series of the lysin in TSBg at e.g., 37° C. for 24 hours. After treatment, wells are washed, air-dried at e.g., 37° C. and stained with e.g., 0.05% crystal violet for 10 minutes.
as §1

In data set [3] the test system is P. aeruginosa strain WC-453. Nature of the data set: Time-kill assay in HEPES or CAA with 25% human serum (Tables 7, 8). The class given is cell-based, Pseudomonas aeruginosa. The following applies: for CAA/HuS (Log10 CFU/mL), 1 hr / CAA/HuS (Log10 CFU/mL), 3 hr: CAA + 25% human serum; for CAA/HuS (Log10 CFU/mL), 1 hr / CAA/HuS (Log10 CFU/mL), 3 hr / HEPES (Log10 CFU/mL), 1 hr / HEPES (Log10 CFU/mL), 3 hr: lysin 10 μg/ml, WC-453; for HEPES (Log10 CFU/mL), 1 hr / HEPES (Log10 CFU/mL), 3 hr: 25 mM HEPES pH 7.4. The protocol: Exponential phase bacteria were then pelleted and resuspended in 1/5 culture volume of 25 mM HEPES, pH 7.4 before a final adjustment to an optical density corresponding to a McFarland value of 0.5. […] All treatments were incubated at 37° C. with aeration. At time points before the addition of lysin (or buffer control) and at 1 hour and 3 hours intervals thereafter, culture samples were removed for quantitative plating on CAA agar plates.

Data set [4] has as its system carbapenem-resistant P. aeruginosa strains. Put plainly: Resensitization of carbapenem-resistant strains, combinations with imipenem or meropenem (Tables 18-22). In kind it is cell-based, Pseudomonas aeruginosa. Conditions: for FICI: isolate WC-452.
In the next data set the test system is P. aeruginosa. Put plainly: MIC, modified CLSI broth microdilution in CAA medium without or with […] human serum (Table 4). As to CAA/HuS MIC: CAA supplemented with 2.5% human serum. The class given is cell-based, Pseudomonas aeruginosa. An excerpt: 2015. […] Clinical and Laboratory Standards Institute, Wayne, Pa.
(In general: Broth dilution looks for growth in wells or tubes with falling amounts of substance.)

A further data set relates to P. aeruginosa strains. Nature of the data set: Checkerboard synergy with meropenem in 25% CAA and […] human serum (Table 16). In kind it is cell-based, Pseudomonas aeruginosa. Conditions: for FICI value (Run #1), with meropenem / FICI value (Run #2), with meropenem: 25% CAA and […] human serum.
Data set [5] deals with Pseudomonas aeruginosa strain CFS-1292 (meropenem resistant). The following applies: strain CFS-1292; no added cations. The procedure:
The activity of selected GN lysins and constructs in the presence of divalent cations was evaluated, and the impact of divalent cations at physiological concentrations was examined in the MIC assay format.

For data set [6], the system named is outer membrane of P. aeruginosa (CFS 1292). Nature of the data set: N-phenyl-1-napthylamine (NPN) uptake assay, outer membrane destabilization (Table 15). The class given is cell-based, Pseudomonas aeruginosa. The following applies: NPN fluorescence, buffer = 100, lysin 100 μg/well. The procedure: The ability of gram-negative lysins to destabilize the outer membrane of P. aeruginosa was evaluated through the use of an N-phenyl-1-napthylamine (NPN) uptake assay. […] NPN was added to a final concentration of […]. […] Changes in fluorescence were recorded (excitation 1=350 nm; emission 1=420 nm) over two hours.

The subject of data set [7] is biofilms formed by P. aeruginosa strain ATCC 17646. Conditions: strain ATCC 17646 biofilm. The protocol:
as §2

Data set [8] can be described thus: Isoelectric point (pI) of the polypeptides. In kind it is physicochemical.
Source text: By comparing the sequences and components of the various polypeptides, the effect of a particular structural modification on isoelectric point (a higher pI favors outer membrane penetration) and activity (as assessed by MIC) can be determined.
Data set [9] deals with carbepenam-resistant clinical isolate WC-453. Nature of the data set: MIC in CAA without or with 25% human serum (Table 5). Conditions: for CAA/HuS MIC: CAA supplemented with 25% human serum. In kind it is cell-based, Pseudomonas aeruginosa. The protocol: MIC values were determined using a modification of the standard broth microdilution reference method defined by the Clinical and Laboratory Standards Institute (CLSI), CLSI. […] Methods for Dilution Antimicrobial Susceptibility Tests for Bacteria That Grow Aerobically; Approved Standard-10th Edition. Clinical and Laboratory Standards Institute, Wayne, Pa.

B1: GN428: lysin obtained from Escherichia virus CBA120 (SEQ ID NO: 60) (protein, listed as Escherichia virus)
chain: MAILKLGNRGSEVKALQQSLNKIGFSLTADGIFGKATENAVKSVQAGAGLVIDGIAGPKTFYAIRNAGDAHQEHLTEADLVDAARELGVELASMKAVNQVESRGTGFTKTGKIKTLFERHIMYKKVTAKFGQARANALYQLYPTLVNPNSGGYIGGDAELERLQGAIALDEDCAYESASYGLFQIMGFNCQICGYSNAKEMFTDFLTGERAHLLAFVKFIKADANMWKALKNKNWAEFARRYNGPAYAKNQYDTKLAAAYKSFC
Turning to B1, in the data set on P. aeruginosa isolates (Tables 11 and 12), the “activity against P. aeruginosa isolates in human serum or SURVANTA” value is “active against a variety of P. aeruginosa isolates”. For the same molecule, the “MIC, CAA + […] Human Serum” value was 1 µg/mL with P. aeruginosa isolates (strain CFS 1109 (ATCC 17646)); 2 µg/mL with P. aeruginosa isolates (strain CFS 1292); 1 µg/mL in the data set on P. aeruginosa isolates (strain CFS1539 (PA1)); 1 µg/mL in the data set with P. aeruginosa isolates (strain CFS 1540 (PA2)); 1 µg/mL in the data set on P. aeruginosa isolates (strain CFS 1541 (PA3)); 4 µg/mL in the data set with P. aeruginosa isolates (strain CFS 1557 (PA19)). Further, the “MIC, CAA + […] Human Serum” value in the data set with P. aeruginosa isolates (strain CFS 1558 (PA20)) was 2 µg/mL; with P. aeruginosa isolates (strain CFS 1559 (PA21)), 2 µg/mL; in the data set with P. aeruginosa isolates (strain CFS 1560 (PA22)), 2 µg/mL; in the data set on P. aeruginosa isolates (strain CFS 1561 (PA23)) it was 2 µg/mL; with P. aeruginosa isolates (strain CFS 1562 (PA24)), 2 µg/mL; in the data set with P. aeruginosa isolates (strain CFS 1596 (PA26)) it was 1 µg/mL. The “MIC, CAA + […] Human Serum” value with P. aeruginosa isolates (strain CFS 1597 (PA27)) was 0.5 µg/mL; in the data set with P. aeruginosa isolates (strain CFS 1669 (PA41)), 2 µg/mL; in the data set on P. aeruginosa isolates (strain CFS 1674 (PA46)), 2 µg/mL; with P. aeruginosa isolates (strain CFS 1675 (PA47)), 1 µg/mL; in the data set on P. aeruginosa isolates (strain CFS 1766 (ATCC 27853)), 4 µg/mL. Moreover, the “MIC in […] Survanta” value in [1] was determined as 4 µg/mL. Moreover, the “MIC in human serum ([…]) in CAA” value in [1] turned out to be 0.125 µg/mL. Besides, the “activity in human serum and pulmonary surfactant” value in data set [1] was “active in human serum and pulmonary surfactant”. Further, in data set [1] (media alone), the “25% CAA MIC” value came out at 4. The “MBEC in CAA supplemented with […] human serum” value in data set [2] was determined as 1 µg/mL. Moreover, the “bactericidal activity (CFU decrease of 3-Log10, 3 hours after the addition of lysin)” value in data set [3] (10 μg/mL, enumerated lysins in CAA/HuS, general statement for HEPES and CAA/HuS) is recorded as “bactericidal activity”. Further, the “CAA/HuS (Log10 CFU/mL), 1 hr” value in [3] was 5.5 Log10 CFU/mL. Further, the “CAA/HuS (Log10 CFU/mL), 3 hr” value in [3] was under 3.7 Log10 CFU/mL. In addition, the “resensitization to carbapenems in synergistic combinations” value in data set [4] (imipenem (IPM) and meropenem (MEM), carbapenem-resistant isolates) is “reductions of IPM and MEM MICS to below breakpoint values”. Also, the FICI in data set [4] (lysin + imipenem) and in data set [4] (lysin + meropenem) was 0.188 in each case. Moreover, the “Antibiotic MIC / Lysin MIC, Alone” value in data set [4] (vs. WC-452 (Table 22)) came to 2. For the same molecule, the “CAA MIC” value with P. aeruginosa (CAA medium, no human serum) stood at 8000 µg/mL. In addition, in the data set with P. aeruginosa (CAA supplemented with […] human serum), the “CAA/HuS MIC” value came to 125 µg/mL. Moreover, the synergy with meropenem entry in the data set with P. aeruginosa strains (FICI less than or equal to 0.5 = potent synergy) is given as “exhibited synergy with meropenem”. Also, the “FICI value (Run #1), with meropenem” value in the data set with P. aeruginosa strains (strain CFS 1292) was determined as 0.1875; in the data set on P. aeruginosa strains (strain CFS 1557 (PA19)) it was 0.1562; in the data set on P. aeruginosa strains (strain CFS 1558 (PA20)) it was 0.09375. Besides, the “FICI value (Run #2), with meropenem” value is reported as 0.219 in the data set with P. aeruginosa strains (strain CFS 1292); 0.198 in the data set with P. aeruginosa strains (strain CFS 1557 (PA19)); 0.135 with P. aeruginosa strains (strain CFS 1558 (PA20)); 0.396 with P. aeruginosa strains (strain CFS 1559 (PA21)); 0.229 in the data set on P. aeruginosa strains (strain CFS 1560 (PA22)); 0.323 in the data set on P. aeruginosa strains (strain CFS 1561 (PA23)). For the same molecule, the “FICI value (Run #2), with meropenem” value in the data set on P. aeruginosa strains (strain CFS 1562 (PA24)) was found to be 0.198; in the data set on P. aeruginosa strains (strain CFS 1766 (ATCC 27853)), 0.156. Further, the “MIC in 25% CAA” value in data set [5] amounted to 4 µg/mL. Besides, the “% RFU” value in data set [6] (5 minutes) was determined as 194 % RFU; in data set [6] (10 minutes), 242 % RFU; in data set [6] (20 minutes) it was 271 % RFU; in data set [6] (40 minutes), 250 % RFU; in data set [6] (60 minutes), 183 % RFU; in [6] (100 minutes), 137 % RFU. Also, in [7], the MBEC was determined as 1 µg/mL.

B2: GN7: lysin obtained from a marine metagenome (SEQ ID NO: 206) (protein)
chain: MTPFDHALELTLGLEGGYSNHLMDRGGETMCGITEAVARRHGWEGEMRDLPIEMVRHIYKVDYWDPLMGDYLGEHNPELAEELFDTAVNCGVGFASKILQKSINVLNRNRTEDIAEDGQIGPQTLKALRDLARRDYDYLLECCKILQGNHYISLAHRDPTQRIFIRGWLTRV
modifications: GOS_4958713 hypothetical protein GOS_4958713, partial [marine metagenome]
For the molecule B2, in data set [3], the “HEPES (Log10 CFU/mL), 1 hr” value is 7.5 Log10 CFU/mL; the “HEPES (Log10 CFU/mL), 3 hr” value was determined as 6.2 Log10 CFU/mL; the “CAA/HuS (Log10 CFU/mL), 1 hr” value is 7.0 Log10 CFU/mL; the “CAA/HuS (Log10 CFU/mL), 3 hr” value is 7.0 Log10 CFU/mL. Moreover, the “pI (isoelectric point)” value in data set [8] was determined as 5.6. Besides, in data set [9], the “activity in CAA supplemented with human serum (25%)” value is given as “active”, the “CAA MIC” value is reported as over 128 and the “CAA/HuS MIC” value came to 128.

B3: GN11: lysin obtained from Pseudomonas putida KT2440 (SEQ ID NO: 208) (protein, listed as Pseudomonas putida)
chain: MTYNAGTKPRAETDYLVVHCSATRPSQDIGAADINRWHRAKGWRCIGYHFVIRRNGVVEEGRELDQIGAHVEGHNINSVGICMAGGVTEADINVPENNFTPEQFASLKHLLGELKEKYPSATIQGHRDFPKVAKACPSFDVKPWVAANL
On to B3, for which, in [3], the “HEPES (Log10 CFU/mL), 1 hr” value is 6.7 Log10 CFU/mL and the “HEPES (Log10 CFU/mL), 3 hr” value is under 3.7 Log10 CFU/mL. The “pI (isoelectric point)” value in data set [8] was 7.3. For the same molecule, in data set [9], the “activity in CAA supplemented with human serum (25%)” value was “active”, the “CAA MIC” value is listed as 32 and the “CAA/HuS MIC” value was found to be 128.

Values taken from US20210324359A1, “USE OF GRAM-NEGATIVE LYSIN-ANTIMICROBIAL PEPTIDE (AMP) POLYPEPTIDE CONSTRUCTS IN TREATING ENDOCARDITIS” (priority 2020, published 2021).
